{"source": "patent US20220218752A1", "about": "(University of Washington, published 2022)", "binders": {"B1": {"name": "Bim_EGFR (EGFR DARPin tagged with N-terminal Bim peptide) (designed binder)", "chain": "MGSHHHHHHGSGSENLYFQGSTDEIWIAQELRRIGDEFNAYYASGSGDLGKKLLEAARAGQDDEVRILMANGADVNADDTWGWTPLHLAAYQGHLEIVEVLLKNGADVNAYDYIGWTPLHLAADGHLEIVEVLLKNGADVNASDYIGDTPLHLAAHNGHLEIVEVLLKHGADVNAQDKFGKTAFDISIDNGNEDLAEILQKLN", "notes": "also called anti-EGFR DARPin with N-terminal fusion to Bim; Bim-DARPin"}, "B2": {"name": "Bim_Her2 (Her2 DARPin tagged with N-terminal Bim peptide) (designed binder)", "chain": "MGSHHHHHHGSGSENLYFQGSTDEIWIAQELRRIGDEFNAYYASGSGDLGKKLLEAARAGQDDEVRILMANGADVNAKDEYGLTPLYLATAHGHLEIVEVLLKNGADVNAVDAIGFTPLHLAAFIGHLEIAEVLLKHGADVNAQDKFGKTAFDISIGNGNEDLAEILQKLN", "notes": "also called anti-Her2 DARPin with N-terminal fusion to Bim; Bim-DARPin"}}, "key": {"[1]": {"molecular_target": "T1, EGFR-iRFP (hsEGFR_ecd_tm-iRFP) (human (printed as hs))", "T1 construct": "EGFR ectodomain and transmembrane region fused to iRFP, expressed on K562 cells by lentiviral transduction; also called K562/EGFR", "T1 sequence (chain, as listed by the source limits assumed)": "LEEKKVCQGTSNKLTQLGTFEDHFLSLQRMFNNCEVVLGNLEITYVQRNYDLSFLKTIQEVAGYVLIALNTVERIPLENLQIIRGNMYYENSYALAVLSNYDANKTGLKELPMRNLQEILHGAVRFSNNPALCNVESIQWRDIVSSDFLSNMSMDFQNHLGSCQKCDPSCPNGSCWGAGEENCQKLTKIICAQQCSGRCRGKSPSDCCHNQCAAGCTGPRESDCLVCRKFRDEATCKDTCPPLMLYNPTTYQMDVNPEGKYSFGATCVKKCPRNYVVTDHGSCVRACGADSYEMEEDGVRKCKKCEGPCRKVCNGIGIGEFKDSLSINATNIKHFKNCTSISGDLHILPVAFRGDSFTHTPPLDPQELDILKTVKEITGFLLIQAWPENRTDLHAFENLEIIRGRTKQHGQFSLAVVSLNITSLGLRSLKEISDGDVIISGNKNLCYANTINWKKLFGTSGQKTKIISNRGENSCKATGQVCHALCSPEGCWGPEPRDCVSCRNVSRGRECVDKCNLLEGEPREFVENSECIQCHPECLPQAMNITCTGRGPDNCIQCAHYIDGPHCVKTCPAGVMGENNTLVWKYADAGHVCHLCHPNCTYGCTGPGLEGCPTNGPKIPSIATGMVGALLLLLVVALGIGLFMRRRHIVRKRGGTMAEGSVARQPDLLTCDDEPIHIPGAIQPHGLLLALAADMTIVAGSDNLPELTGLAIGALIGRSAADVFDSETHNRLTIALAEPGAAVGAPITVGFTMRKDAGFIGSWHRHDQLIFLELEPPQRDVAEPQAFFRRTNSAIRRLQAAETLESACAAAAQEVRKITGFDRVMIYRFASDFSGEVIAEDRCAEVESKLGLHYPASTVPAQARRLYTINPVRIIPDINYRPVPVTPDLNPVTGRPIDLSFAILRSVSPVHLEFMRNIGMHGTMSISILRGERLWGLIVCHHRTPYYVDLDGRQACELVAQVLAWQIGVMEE", "test": "flow cytometry on mixed K562 cells expressing Her2-eGFP, EGFR-iRFP, both or neither; DARPin pre-complexed with Bcl2-AF594, 3-fold dilutions from 300 nM to 0.4 nM", "experimental": "(§1) FIG. 21. DARPin binder affinity measured by flow cytometry. Anti-Her2 or anti-EGFR DARPins with N-terminal fusions to Bim were pre-complexed with Bcl2-AF594 and serially diluted 3-fold from 300 nM down to 0.4 nM. This dilution series was used to label a mixed population of K562 cells expressing Her2-eGFP, EGFR-iRFP, both, or neither for one hour at room temperature in a 50 μl incubation volume. The cells were then washed in PBS supplemented with 0.1% bovine serum albumin and analyzed on an LSRII flow cytometer."}, "[2]": {"molecular_target": "T2, Her2-eGFP (hsHER2_ecd_tm-eGFP) (human (printed as hs))", "T2 construct": "Her2 ectodomain and transmembrane region fused to eGFP, expressed on K562 cells by lentiviral transduction; also called K562/Her2", "test": "flow cytometry on mixed K562 cells expressing Her2-eGFP, EGFR-iRFP, both or neither; DARPin pre-complexed with Bcl2-AF594, 3-fold dilutions from 300 nM to 0.4 nM", "experimental": "as §1"}}}
{"binder": "B1", "values": [{"measurement": "Kd", "setting": "[1]", "result": "~10", "unit": "nM"}]}
{"binder": "B2", "values": [{"measurement": "Kd", "setting": "[2]", "result": "~10", "unit": "nM"}]}
